# IntAct's records for PubMed 20937909
# B1: Staphylococcal nuclease domain-containing protein 1 (Homo sapiens), Q7KZF4 (parent)
# chain: MASSAQSGGSSGGPAVPTVQRGIIKMVLSGCAIIVRGQPRGGPPPERQINLSNIRAGNLARRAAATQPDAKDTPDEPWAFPAREFLRKKLIGKEVCFTIENKTPQGREYGMIYLGKDTNGENIAESLVAEGLATRREGMRANNPEQNRLSECEEQAKAAKKGMWSEGNGSHTIRDLKYTIENPRHFVDSHHQKPVNAIIEHVRDGSVVRALLLPDYYLVTVMLSGIKCPTFRREADGSETPEPFAAEAKFFTESRLLQRDVQIILESCHNQNILGTILHPNGNITELLLKEGFARCVDWSIAVYTRGAEKLRAAERFAKERRLRIWRDYVAPTANLDQKDKQFVAKVMQVLNADAIVVKLNSGDYKTIHLSSIRPPRLEGENTQDKNKKLRPLYDIPYMFEAREFLRKKLIGKKVNVTVDYIRPASPATETVPAFSERTCATVTIGGINIAEALVSKGLATVIRYRQDDDQRSSHYDELLAAEARAIKNGKGLHSKKEVPIHRVADISGDTQKAKQFLPFLQRAGRSEAVVEYVFSGSRLKLYLPKETCLITFLLAGIECPRGARNLPGLVQEGEPFSEEATLFTKELVLQREVEVEVESMDKAGNFIGWLHIDGANLSVLLVEHALSKVHFTAERSSYYKSLLSAEEAAKQKKEKVWAHYEEQPVEEVMPVLEEKERSASYKPVFVTEITDDLHFYVQDVETGTQLEKLMENMRNDIASHPPVEGSYAPRRGEFCIAKFVDGEWYRARVEKVESPAKIHVFYIDYGNREVLPSTRLGTLSPAFSTRVLPAQATEYAFAFIQVPQDDDARTDAVDSVVRDIQNTQCLLNVEHLSAGCPHVTLQFADSKGDVGLGLVKEGLVMVEVRKEKQFQKVITEYLNAQESAKSARLNLWRYGDFRADDADEFGYSR
# Variants of: B1
# Settings: with piwl1_human PIWIL1, Q96J94
# Sequence of piwl1_human PIWIL1, Q96J94 (Q96J94 whole entry): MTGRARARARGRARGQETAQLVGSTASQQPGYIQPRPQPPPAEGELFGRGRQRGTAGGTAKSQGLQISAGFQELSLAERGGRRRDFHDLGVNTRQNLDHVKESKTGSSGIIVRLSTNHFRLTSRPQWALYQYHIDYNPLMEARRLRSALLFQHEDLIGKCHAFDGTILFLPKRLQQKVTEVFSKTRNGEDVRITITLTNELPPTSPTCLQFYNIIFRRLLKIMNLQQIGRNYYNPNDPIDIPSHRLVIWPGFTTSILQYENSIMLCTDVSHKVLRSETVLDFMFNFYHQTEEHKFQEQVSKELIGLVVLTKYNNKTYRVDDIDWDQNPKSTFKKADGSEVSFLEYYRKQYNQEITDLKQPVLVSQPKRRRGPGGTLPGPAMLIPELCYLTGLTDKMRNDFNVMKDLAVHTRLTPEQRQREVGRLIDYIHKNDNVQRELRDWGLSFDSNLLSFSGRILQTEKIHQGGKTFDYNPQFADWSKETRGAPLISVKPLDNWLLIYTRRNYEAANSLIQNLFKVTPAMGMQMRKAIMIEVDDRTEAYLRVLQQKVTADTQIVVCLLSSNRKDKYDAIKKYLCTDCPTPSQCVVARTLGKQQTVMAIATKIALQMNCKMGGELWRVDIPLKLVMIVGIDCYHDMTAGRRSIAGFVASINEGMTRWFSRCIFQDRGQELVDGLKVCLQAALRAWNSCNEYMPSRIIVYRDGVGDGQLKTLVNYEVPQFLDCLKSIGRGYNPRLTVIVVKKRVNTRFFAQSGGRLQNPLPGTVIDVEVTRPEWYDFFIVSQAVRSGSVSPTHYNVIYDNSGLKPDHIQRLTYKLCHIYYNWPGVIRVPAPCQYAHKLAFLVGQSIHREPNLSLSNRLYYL
row,Variant,effect of a mutation on the interaction
1,F740L,decreasing interaction
2,Y763L,decreasing interaction
3,Y746L,decreasing interaction strength

# The next lines start with the values.
row,effect of a mutation on the interaction,Variant
1,decreasing interaction,Y766L
2,decreasing interaction,N768Q
3,disrupting interaction,N768R
